Test results: patent publication US20250051476A1 (ABDERA THERAPEUTICS, published 2025)

T1: DLL3 on cells (SHP-77, NCI-H82, HEK-DLL3, membrane proteome array cells) (human, UniProt Q9NYJ7 27-618)
T1 construct: whole, on cells; also called hDLL3
T1 sequence (looked up): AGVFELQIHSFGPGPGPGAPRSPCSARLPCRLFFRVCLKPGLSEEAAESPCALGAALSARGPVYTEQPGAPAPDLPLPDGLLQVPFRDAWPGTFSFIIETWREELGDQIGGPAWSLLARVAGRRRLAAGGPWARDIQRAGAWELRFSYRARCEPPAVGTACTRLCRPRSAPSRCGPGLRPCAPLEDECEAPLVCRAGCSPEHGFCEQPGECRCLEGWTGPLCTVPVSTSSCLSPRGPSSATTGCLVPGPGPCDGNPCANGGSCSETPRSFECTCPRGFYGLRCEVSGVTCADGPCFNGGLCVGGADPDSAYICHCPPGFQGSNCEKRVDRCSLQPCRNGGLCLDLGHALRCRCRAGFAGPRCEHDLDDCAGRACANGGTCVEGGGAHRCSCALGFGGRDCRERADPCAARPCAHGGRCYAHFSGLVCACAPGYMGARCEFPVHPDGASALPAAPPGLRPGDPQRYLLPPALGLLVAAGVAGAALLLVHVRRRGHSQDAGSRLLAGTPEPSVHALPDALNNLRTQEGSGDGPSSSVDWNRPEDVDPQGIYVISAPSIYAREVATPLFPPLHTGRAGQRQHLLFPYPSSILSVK

T2: mouse DLL3 (mouse, UniProt O88516 25-477, limits assumed)
T2 construct: also called mDLL3; murine DLL3
T2 sequence (looked up): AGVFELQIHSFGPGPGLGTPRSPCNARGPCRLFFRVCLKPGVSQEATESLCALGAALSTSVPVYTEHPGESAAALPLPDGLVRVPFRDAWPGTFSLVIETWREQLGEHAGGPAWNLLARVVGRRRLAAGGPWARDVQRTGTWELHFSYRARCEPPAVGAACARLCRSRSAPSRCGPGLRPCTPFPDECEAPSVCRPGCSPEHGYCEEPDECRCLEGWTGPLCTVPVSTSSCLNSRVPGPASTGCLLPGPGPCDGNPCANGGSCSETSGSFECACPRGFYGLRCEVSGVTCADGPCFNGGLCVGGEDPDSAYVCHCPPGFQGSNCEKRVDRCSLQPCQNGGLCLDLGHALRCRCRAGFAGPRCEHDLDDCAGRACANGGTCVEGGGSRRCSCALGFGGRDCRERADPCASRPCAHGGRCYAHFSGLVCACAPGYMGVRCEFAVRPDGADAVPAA

T3: human DLL3 (human, UniProt Q9NYJ7 27-492, limits assumed)
T3 construct: also called hDLL3; Delta-like protein 3
T3 sequence (looked up): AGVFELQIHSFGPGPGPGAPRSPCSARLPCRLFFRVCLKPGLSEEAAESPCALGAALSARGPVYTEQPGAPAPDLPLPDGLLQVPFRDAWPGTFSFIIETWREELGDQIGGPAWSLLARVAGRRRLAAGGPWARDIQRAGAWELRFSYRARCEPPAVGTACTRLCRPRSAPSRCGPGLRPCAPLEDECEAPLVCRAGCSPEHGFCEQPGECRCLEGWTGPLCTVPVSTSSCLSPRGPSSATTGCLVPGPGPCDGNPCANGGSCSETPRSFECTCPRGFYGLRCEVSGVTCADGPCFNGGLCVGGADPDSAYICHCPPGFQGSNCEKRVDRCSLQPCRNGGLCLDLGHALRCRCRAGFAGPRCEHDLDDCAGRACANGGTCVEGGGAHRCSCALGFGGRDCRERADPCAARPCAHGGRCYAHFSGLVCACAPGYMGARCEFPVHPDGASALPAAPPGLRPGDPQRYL


What was measured:
[1] = biological target: T1, DLL3 on cells (SHP-77, NCI-H82, …); experiment: flow cytometry on SHP-77 cells, Geomeans RL1-H
[2] = biological target: T1, DLL3 on cells (SHP-77, NCI-H82, …); experiment: flow cytometry on SHP-77 cells, Geomeans RL1-H; p-SCN-Bn-DOTA conjugate against the unconjugated VHHFc
mouse DLL3 = biological target: T2, mouse DLL3; experiment: ELISA
[3] = biological target: T1, DLL3 on cells (SHP-77, NCI-H82, …); experiment: flow cytometry on SHP-77 cells, Geomeans RL1-H; remark: listed apart in the source
human DLL3 = biological target: T3, human DLL3; experiment: ELISA

| EC50 (read off the curve) [1] | EC50 (read off the curve) [2] | Binder | also measured |
| --- | --- | --- | --- |
| ~0.1 nM |  | 186 (Fc fusion, Parental camelid VHH-Fc) QVQVVESGGGLVQPGGSLTLSCAASGFDFSTYTVNWYRQAPGKEREKVARISSTGTTTNYANSAKGRFTLSRDNAKNRVYLQMNNLKPEDTAVYFCNFERFDSNYWGQGTQVTVSSEPKSSDKTHTCPPCPAPEAEGAPSVFLFPPKPKDTLMISRTPEVTCVVVDVSHEDPEVKFNWYVDGVEVHNAKTKPREEQYNSTYRVVSVLTVLHQDWLNGKEYKCKVSNKALPSSIEKTISKAKGQPREPQVYTLPPSREEMTKNQVSLTCLVKGFYPSDIAVEWESNGQPENNYKTTPPVLDSDGSFFLYSKLTVDKSRWQQGNVFSCSVMHEALHNQYTQKSLSLSPG |  |
|  | ~0.1 nM | 126_zu2 Conjugate (Fc fusion, conjugated to p-SCN-Bn-DOTA, chelator-antibody ratio of 3-5 (lysine-based conjugation)) QVQLVESGGGLVQPGGSLRLSCAASGITFSMYSMSWFRQAPGQGLELVAATTTFGSTNYADSVKGRFTISRDNSKNTLYLQMNSLRAEDTAVYYCAARFTSEEYWGQGTLVTVSSEPKSSDKTHTCPPCPAPEAEGAPSVFLFPPKPKDTLMISRTPEVTCVVVDVSHEDPEVKFNWYVDGVEVHNAKTKPREEQYNSTYRVVSVLTVLHQDWLNGKEYKCKVSNKALPSSIEKTISKAKGQPREPQVYTLPPSREEMTKNQVSLTCLVKGFYPSDIAVEWESNGQPENNYKTTPPVLDSDGSFFLYSKLTVDKSRWQQGNVFSCSVMHEALHNQYTQKSLSLSPG |  |
| ~0.3 nM |  | 186_zu1 (Fc fusion, Humanized VHH-Fc) QVQLVESGGGLVQPGGSLRLSCAASGFDFSTYTVNWFRQAPGQGLEAVARISSTGTTTNYANSAKGRFTISRDNSKNTLYLQMNSLRAEDTAVYYCAAERFDSNYWGQGTLVTVSSEPKSSDKTHTCPPCPAPEAEGAPSVFLFPPKPKDTLMISRTPEVTCVVVDVSHEDPEVKFNWYVDGVEVHNAKTKPREEQYNSTYRVVSVLTVLHQDWLNGKEYKCKVSNKALPSSIEKTISKAKGQPREPQVYTLPPSREEMTKNQVSLTCLVKGFYPSDIAVEWESNGQPENNYKTTPPVLDSDGSFFLYSKLTVDKSRWQQGNVFSCSVMHEALHNQYTQKSLSLSPG | binding result (mouse DLL3): no binding |
| ~0.1 nM |  | 126 (Fc fusion, Parental camelid VHH-Fc) QVQLVESGGGMVQPGGSLRLSCAASGITFSMYSMSWYRQPPGKQRELVAATTTFGSTNYADSVKGRFTISRDNAKNTVYLQMNSLKPEDTAVYLCNARFTSEEYWGQGTQVTVSSEPKSSDKTHTCPPCPAPEAEGAPSVFLFPPKPKDTLMISRTPEVTCVVVDVSHEDPEVKFNWYVDGVEVHNAKTKPREEQYNSTYRVVSVLTVLHQDWLNGKEYKCKVSNKALPSSIEKTISKAKGQPREPQVYTLPPSREEMTKNQVSLTCLVKGFYPSDIAVEWESNGQPENNYKTTPPVLDSDGSFFLYSKLTVDKSRWQQGNVFSCSVMHEALHNQYTQKSLSLSPG | EC50 (read off the curve) [3]: ~0.1 nM |
|  | ~0.2 nM | 126 Conjugate (Fc fusion, conjugated to p-SCN-Bn-DOTA, chelator-antibody ratio of 3-5 (lysine-based conjugation)) QVQLVESGGGMVQPGGSLRLSCAASGITFSMYSMSWYRQPPGKQRELVAATTTFGSTNYADSVKGRFTISRDNAKNTVYLQMNSLKPEDTAVYLCNARFTSEEYWGQGTQVTVSSEPKSSDKTHTCPPCPAPEAEGAPSVFLFPPKPKDTLMISRTPEVTCVVVDVSHEDPEVKFNWYVDGVEVHNAKTKPREEQYNSTYRVVSVLTVLHQDWLNGKEYKCKVSNKALPSSIEKTISKAKGQPREPQVYTLPPSREEMTKNQVSLTCLVKGFYPSDIAVEWESNGQPENNYKTTPPVLDSDGSFFLYSKLTVDKSRWQQGNVFSCSVMHEALHNQYTQKSLSLSPG |  |

The remaining lines, values behind:

| Binder | EC50 (read off the curve) [1] | EC50 (read off the curve) [2] | also measured |
| --- | --- | --- | --- |
| 126_zu1 Conjugate (Fc fusion, conjugated to p-SCN-Bn-DOTA, chelator-antibody ratio of 3-5 (lysine-based conjugation)) QVQLVESGGGLVQPGGSLRLSCAASGITFSMYSMSWFRQAPGQGLEAVAATTTFGSTNYADSVKGRFTISRDNSKNTLYLQMNSLRAEDTAVYYCAARFTSEEYWGQGTLVTVSSEPKSSDKTHTCPPCPAPEAEGAPSVFLFPPKPKDTLMISRTPEVTCVVVDVSHEDPEVKFNWYVDGVEVHNAKTKPREEQYNSTYRVVSVLTVLHQDWLNGKEYKCKVSNKALPSSIEKTISKAKGQPREPQVYTLPPSREEMTKNQVSLTCLVKGFYPSDIAVEWESNGQPENNYKTTPPVLDSDGSFFLYSKLTVDKSRWQQGNVFSCSVMHEALHNQYTQKSLSLSPG |  |  | binding result [2]: binds |
| 107_zu2 Conjugate (Fc fusion, conjugated to p-SCN-Bn-DOTA, chelator-antibody ratio of 3-5 (lysine-based conjugation)) QVQLVESGGGLVQPGGSLRLSCAASDRTFSSYAVGWFRQAPGQGLEFVAAISWNGGRTLYTDSVTGRFTISRDNSKNTLYLQMNSLRAEDTAVYYCAARPAAPTRRLEYDYWGQGTLVTVSSEPKSSDKTHTCPPCPAPEAEGAPSVFLFPPKPKDTLMISRTPEVTCVVVDVSHEDPEVKFNWYVDGVEVHNAKTKPREEQYNSTYRVVSVLTVLHQDWLNGKEYKCKVSNKALPSSIEKTISKAKGQPREPQVYTLPPSREEMTKNQVSLTCLVKGFYPSDIAVEWESNGQPENNYKTTPPVLDSDGSFFLYSKLTVDKSRWQQGNVFSCSVMHEALHNQYTQKSLSLSPG |  | ~0.1 nM |  |
| 186_zu2 conjugated to p-SCN-Bn-DOTA (Fc fusion, conjugated to p-SCN-Bn-DOTA, chelator-antibody ratio of 3-5; lysine in FW2 (printed position 52), Humanized VHHFc conjugate) QVQLVESGGGLVQPGGSLRLSCAASGFDFSTYTVNWFRQAPGQGLEKVARISSTGTTTNYANSAKGRFTISRDNSKNTLYLQMNSLRAEDTAVYYCAAERFDSNYWGQGTLVTVSSEPKSSDKTHTCPPCPAPEAEGAPSVFLFPPKPKDTLMISRTPEVTCVVVDVSHEDPEVKFNWYVDGVEVHNAKTKPREEQYNSTYRVVSVLTVLHQDWLNGKEYKCKVSNKALPSSIEKTISKAKGQPREPQVYTLPPSREEMTKNQVSLTCLVKGFYPSDIAVEWESNGQPENNYKTTPPVLDSDGSFFLYSKLTVDKSRWQQGNVFSCSVMHEALHNQYTQKSLSLSPG |  |  | binding result [2]: binds |
| 186_zu2 (Fc fusion, Humanized VHH-Fc) QVQLVESGGGLVQPGGSLRLSCAASGFDFSTYTVNWFRQAPGQGLEKVARISSTGTTTNYANSAKGRFTISRDNSKNTLYLQMNSLRAEDTAVYYCAAERFDSNYWGQGTLVTVSSEPKSSDKTHTCPPCPAPEAEGAPSVFLFPPKPKDTLMISRTPEVTCVVVDVSHEDPEVKFNWYVDGVEVHNAKTKPREEQYNSTYRVVSVLTVLHQDWLNGKEYKCKVSNKALPSSIEKTISKAKGQPREPQVYTLPPSREEMTKNQVSLTCLVKGFYPSDIAVEWESNGQPENNYKTTPPVLDSDGSFFLYSKLTVDKSRWQQGNVFSCSVMHEALHNQYTQKSLSLSPG | ~0.1 nM |  | binding result (mouse DLL3): no binding |
| 186_zu1 conjugated to p-SCN-Bn-DOTA (Fc fusion, conjugated to p-SCN-Bn-DOTA, chelator-antibody ratio of 3-5, Humanized VHHFc conjugate) QVQLVESGGGLVQPGGSLRLSCAASGFDFSTYTVNWFRQAPGQGLEAVARISSTGTTTNYANSAKGRFTISRDNSKNTLYLQMNSLRAEDTAVYYCAAERFDSNYWGQGTLVTVSSEPKSSDKTHTCPPCPAPEAEGAPSVFLFPPKPKDTLMISRTPEVTCVVVDVSHEDPEVKFNWYVDGVEVHNAKTKPREEQYNSTYRVVSVLTVLHQDWLNGKEYKCKVSNKALPSSIEKTISKAKGQPREPQVYTLPPSREEMTKNQVSLTCLVKGFYPSDIAVEWESNGQPENNYKTTPPVLDSDGSFFLYSKLTVDKSRWQQGNVFSCSVMHEALHNQYTQKSLSLSPG |  | ~0.3 nM |  |
| 126_zu1 (Fc fusion, Humanized VHH-Fc) QVQLVESGGGLVQPGGSLRLSCAASGITFSMYSMSWFRQAPGQGLEAVAATTTFGSTNYADSVKGRFTISRDNSKNTLYLQMNSLRAEDTAVYYCAARFTSEEYWGQGTLVTVSSEPKSSDKTHTCPPCPAPEAEGAPSVFLFPPKPKDTLMISRTPEVTCVVVDVSHEDPEVKFNWYVDGVEVHNAKTKPREEQYNSTYRVVSVLTVLHQDWLNGKEYKCKVSNKALPSSIEKTISKAKGQPREPQVYTLPPSREEMTKNQVSLTCLVKGFYPSDIAVEWESNGQPENNYKTTPPVLDSDGSFFLYSKLTVDKSRWQQGNVFSCSVMHEALHNQYTQKSLSLSPG |  |  | binding result (human DLL3): binds; binding result (mouse DLL3): no binding; binding result [3]: binds |
